For 2 substances, Lipogenesis in rat adipocytes [Potency (%)] Mean Value (% of human insulin) results are on record in patent publication US20200261595A1.

The assay concerns the target insulin receptor of isolated rat adipocytes (rat) (UniProt P15127). The assay is described as follows: cell-based or functional assay.

Sequence of insulin receptor of isolated rat adipocytes (rat) (P15127 27-1383): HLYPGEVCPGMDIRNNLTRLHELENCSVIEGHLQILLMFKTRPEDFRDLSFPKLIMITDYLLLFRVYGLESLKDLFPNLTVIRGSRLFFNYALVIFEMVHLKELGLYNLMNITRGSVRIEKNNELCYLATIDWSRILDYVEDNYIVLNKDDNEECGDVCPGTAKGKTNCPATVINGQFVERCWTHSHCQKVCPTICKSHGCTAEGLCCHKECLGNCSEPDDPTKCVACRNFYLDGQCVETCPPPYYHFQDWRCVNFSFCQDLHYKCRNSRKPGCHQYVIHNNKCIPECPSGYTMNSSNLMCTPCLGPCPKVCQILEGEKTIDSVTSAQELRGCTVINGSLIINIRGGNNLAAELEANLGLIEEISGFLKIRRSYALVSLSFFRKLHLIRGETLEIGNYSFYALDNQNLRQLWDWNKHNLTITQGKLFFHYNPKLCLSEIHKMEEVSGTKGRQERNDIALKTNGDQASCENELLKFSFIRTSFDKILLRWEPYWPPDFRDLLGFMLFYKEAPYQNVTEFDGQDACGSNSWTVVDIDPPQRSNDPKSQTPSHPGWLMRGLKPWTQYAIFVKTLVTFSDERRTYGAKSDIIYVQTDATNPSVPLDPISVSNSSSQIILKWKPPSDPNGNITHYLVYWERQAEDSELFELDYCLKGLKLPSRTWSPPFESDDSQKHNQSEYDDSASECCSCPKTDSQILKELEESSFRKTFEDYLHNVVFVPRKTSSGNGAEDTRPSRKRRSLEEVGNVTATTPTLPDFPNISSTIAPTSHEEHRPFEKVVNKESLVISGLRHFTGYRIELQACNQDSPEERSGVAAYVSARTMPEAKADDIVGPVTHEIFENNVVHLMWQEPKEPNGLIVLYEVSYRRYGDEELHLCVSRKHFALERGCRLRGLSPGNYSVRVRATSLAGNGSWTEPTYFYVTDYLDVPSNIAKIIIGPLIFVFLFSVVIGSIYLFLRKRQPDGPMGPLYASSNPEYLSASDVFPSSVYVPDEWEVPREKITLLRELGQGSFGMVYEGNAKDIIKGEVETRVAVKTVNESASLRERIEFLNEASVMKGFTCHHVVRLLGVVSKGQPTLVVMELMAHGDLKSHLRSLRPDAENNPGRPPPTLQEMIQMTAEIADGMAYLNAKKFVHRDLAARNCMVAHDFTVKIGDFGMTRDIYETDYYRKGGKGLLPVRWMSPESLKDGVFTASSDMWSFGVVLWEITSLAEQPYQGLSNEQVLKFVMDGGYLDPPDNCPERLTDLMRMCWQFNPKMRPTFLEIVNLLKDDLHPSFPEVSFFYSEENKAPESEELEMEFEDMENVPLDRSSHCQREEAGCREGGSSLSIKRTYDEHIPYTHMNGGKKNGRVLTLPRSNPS

In turn, “(A14E, A21G, A22(GQEP)19, 98K^, A99P, B25H, B29R, desB30 human insulin)/(226A, 227G, 228P, 234A, 235K, des447 hIgG4-Fc(228-447)) 3,5-bis[(2-acetyl)amino]benzoyl conjugate (from UniProt P01861 109-325)” gave a Lipogenesis in rat adipocytes [Potency (%)] Mean Value (% of human insulin) of 5.44. In the case of “A14E, B(-78K^), B(-77P), B(-1)(GQAP)19, B25H, B29R, desB30 human insulin/(227A, 234A, 235K, 297E, 315Q, 384Q, des447 hIgG4-Fc(228-447)) 4-[bis[2-[(2-acetyl)amino]ethyl]amino]-4-oxo-butanoyl conjugate (from UniProt P01861 108-325)” it was 0.87.
